Experimental findings from PMC2169435 are described below.

In experiment [1] the target is PS2 COOH-terminal 39-amino acid bait (residues K410-I448) (human) (UniProt P49810). Put plainly: two-hybrid.
In experiment [2] the target is PS1 COOH-terminal bait (human). Put plainly: two-hybrid.

PS2 COOH-terminal 39-amino acid bait (residues K410-I448) (human), sequence (P49810 410-448): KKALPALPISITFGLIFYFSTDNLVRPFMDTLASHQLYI

Take “near full-length ubiquilin Y2H prey clone (residues 37-595) (domain or fragment)”: the fold beta-galactosidase activity over negative-control baits in experiment [1] is > 55 fold; in experiment [2], > 12 fold.
As for “ubiquilin Y2H prey clone encoding the COOH-terminal 218 residues (domain or fragment)”, the fold beta-galactosidase activity over negative-control baits in experiment [1] is > 55 fold.
